Measurements: the supplement of paper PMC9112550, “Optimization of the antimicrobial peptide Bac7 by deep mutational scanning” (BMC Biology, 2022)

What follows are sequences tested on Escherichia coli TOP10 (assay: shrunken log2 fold change of peptide-encoding DNA abundance (4.5 h post-induction vs induction); higher = less antimicrobial activity (less host growth inhibition)). Details: time post-induction: 4.5 h; library: site-saturation at positions 5, 18, 19, 20.
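Note: peptides expressed intracellularly from a pBAD plasmid library in pooled LB shake-flask culture, induced with 0.3% L-arabinose, DNA abundance read by NGS, three biological replicates, DESeq2 with apeglm shrinkage.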

RRIRCRPPRLPRPRPRPNRKPRP and RRIRNRPPRLPRPRPRPDMLPRP are within 0.2 log units of each other in “shrunken log2 fold change” value: -0.127 for the first, -0.116 for the second.

RRIRWRPPRLPRPRPRPGDYPRP and RRIRTRPPRLPRPRPRPDNYPRP are within 0.2 log units of each other in “shrunken log2 fold change” value: 0.0468 for the first, -0.0497 for the second.

First: RRIRTRPPRLPRPRPRPCSVPRP
Second: RRIRMRPPRLPRPRPRPPKQPRP
The “shrunken log2 fold change” value of the first is lower: 0.0123 for the first, 0.742 for the second.

First: RRIRCRPPRLPRPRPRPFILPRP
Second: RRIRTRPPRLPRPRPRPPQAPRP
The “shrunken log2 fold change” value of the first is lower: -0.898 for the first, 0.121 for the second.

Compared with RRIRIRPPRLPRPRPRPYFIPRP, RRIRIRPPRLPRPRPRPSSSPRP is higher in “shrunken log2 fold change” value: -1.14 for the first, 0.148 for the second.

RRIRPRPPRLPRPRPRPLISPRP and RRIRGRPPRLPRPRPRPHYQPRP are within 0.2 log units of each other in “shrunken log2 fold change” value: -0.17 for the first, -0.15 for the second.

Going from RRIRPRPPRLPRPRPRPWECPRP to RRIRSRPPRLPRPRPRPDGAPRP, the “shrunken log2 fold change” value rises from -0.0846 to 0.289.

RRIRHRPPRLPRPRPRPASCPRP and RRIRCRPPRLPRPRPRPSWTPRP are within 0.2 log units of each other in “shrunken log2 fold change” value: -0.5 for the first, -0.532 for the second.

RRIRARPPRLPRPRPRPMDLPRP and RRIRNRPPRLPRPRPRPQCTPRP are within 0.2 log units of each other in “shrunken log2 fold change” value: -0.292 for the first, -0.123 for the second.

First: RRIRKRPPRLPRPRPRPPPTPRP
Second: RRIRMRPPRLPRPRPRPHNHPRP
The “shrunken log2 fold change” value of the first is higher: 1.11 for the first, -0.239 for the second.

RRIRVRPPRLPRPRPRPNSVPRP and RRIRMRPPRLPRPRPRPHNFPRP are within 0.2 log units of each other in “shrunken log2 fold change” value: -0.00107 for the first, -0.0303 for the second.

RRIRSRPPRLPRPRPRPPMAPRP and RRIRPRPPRLPRPRPRPHVLPRP are within 0.2 log units of each other in “shrunken log2 fold change” value: 0.169 for the first, -0.0256 for the second.

RRIRARPPRLPRPRPRPREQPRP and RRIRGRPPRLPRPRPRPQVRPRP are within 0.2 log units of each other in “shrunken log2 fold change” value: 0.825 for the first, 0.713 for the second.

Going from RRIRNRPPRLPRPRPRPHAPPRP to RRIRIRPPRLPRPRPRPHYIPRP, the “shrunken log2 fold change” value falls from 0.0879 to -0.155.

Compared with RRIRHRPPRLPRPRPRPCYPPRP, RRIRIRPPRLPRPRPRPRMVPRP is higher in “shrunken log2 fold change” value: -0.384 for the first, 0.0922 for the second.

RRIRFRPPRLPRPRPRPDEQPRP and RRIRCRPPRLPRPRPRPVIEPRP are within 0.2 log units of each other in “shrunken log2 fold change” value: 0.00595 for the first, -0.141 for the second.

First: RRIRGRPPRLPRPRPRPTPLPRP
Second: RRIRARPPRLPRPRPRPKGDPRP
The “shrunken log2 fold change” value of the first is higher: 0.747 for the first, -0.07 for the second.

RRIRRRPPRLPRPRPRPSSFPRP and RRIRERPPRLPRPRPRPYQGPRP are within 0.2 log units of each other in “shrunken log2 fold change” value: -0.0626 for the first, -0.199 for the second.

Going from RRIRSRPPRLPRPRPRPAPPPRP to RRIRDRPPRLPRPRPRPHVWPRP, the “shrunken log2 fold change” value falls from 0.458 to 0.0894.

Going from RRIRARPPRLPRPRPRPFIDPRP to RRIRDRPPRLPRPRPRPYFFPRP, the “shrunken log2 fold change” value rises from -0.554 to -0.287.

Compared with RRIRRRPPRLPRPRPRPEDGPRP, RRIRMRPPRLPRPRPRPPCAPRP is higher in “shrunken log2 fold change” value: 0.445 for the first, 2.14 for the second.

RRIRHRPPRLPRPRPRPEFLPRP and RRIRKRPPRLPRPRPRPLNNPRP are within 0.2 log units of each other in “shrunken log2 fold change” value: -0.0472 for the first, -0.0972 for the second.

RRIRGRPPRLPRPRPRPFMRPRP and RRIRARPPRLPRPRPRPPEFPRP are within 0.2 log units of each other in “shrunken log2 fold change” value: 0.567 for the first, 0.558 for the second.

First: RRIRSRPPRLPRPRPRPCVHPRP
Second: RRIRGRPPRLPRPRPRPIASPRP
The “shrunken log2 fold change” value of the first is lower: -0.471 for the first, 0.524 for the second.

Compared with RRIRDRPPRLPRPRPRPNARPRP, RRIRRRPPRLPRPRPRPNKTPRP is lower in “shrunken log2 fold change” value: 0.299 for the first, -0.00203 for the second.

First: RRIRWRPPRLPRPRPRPPAKPRP
Second: RRIRYRPPRLPRPRPRPKVDPRP
The “shrunken log2 fold change” value of the first is higher: 0.56 for the first, -0.079 for the second.

RRIRCRPPRLPRPRPRPVCQPRP and RRIRKRPPRLPRPRPRPKEKPRP are within 0.2 log units of each other in “shrunken log2 fold change” value: -0.102 for the first, 0.0508 for the second.

RRIRCRPPRLPRPRPRPNSAPRP and RRIRDRPPRLPRPRPRPSSTPRP are within 0.2 log units of each other in “shrunken log2 fold change” value: 0.0338 for the first, 0.00883 for the second.

Compared with RRIRARPPRLPRPRPRPFWSPRP, RRIRHRPPRLPRPRPRPETPPRP is higher in “shrunken log2 fold change” value: 0.061 for the first, 0.561 for the second.

Going from RRIRWRPPRLPRPRPRPQNHPRP to RRIRSRPPRLPRPRPRPARLPRP, the “shrunken log2 fold change” value rises from -0.585 to 0.0986.

Going from RRIRPRPPRLPRPRPRPAWVPRP to RRIRRRPPRLPRPRPRPNACPRP, the “shrunken log2 fold change” value falls from 0.401 to -0.00291.

Compared with RRIRGRPPRLPRPRPRPARIPRP, RRIRMRPPRLPRPRPRPFPCPRP is lower in “shrunken log2 fold change” value: 0.208 for the first, -0.0872 for the second.

Compared with RRIRCRPPRLPRPRPRPLEHPRP, RRIRGRPPRLPRPRPRPGRTPRP is higher in “shrunken log2 fold change” value: -0.167 for the first, 0.498 for the second.

Compared with RRIRARPPRLPRPRPRPLPSPRP, RRIRHRPPRLPRPRPRPWVCPRP is lower in “shrunken log2 fold change” value: 0.353 for the first, -0.044 for the second.

Going from RRIRYRPPRLPRPRPRPFMVPRP to RRIRRRPPRLPRPRPRPDYNPRP, the “shrunken log2 fold change” value rises from -1.05 to -0.0973.

RRIRGRPPRLPRPRPRPFMNPRP and RRIRLRPPRLPRPRPRPCSTPRP are within 0.2 log units of each other in “shrunken log2 fold change” value: -0.116 for the first, -0.0337 for the second.

Going from RRIRQRPPRLPRPRPRPTFCPRP to RRIRCRPPRLPRPRPRPGNMPRP, the “shrunken log2 fold change” value falls from -0.0744 to -0.368.

RRIRPRPPRLPRPRPRPFVHPRP and RRIRRRPPRLPRPRPRPVIDPRP are within 0.2 log units of each other in “shrunken log2 fold change” value: -0.246 for the first, -0.165 for the second.

First: RRIRQRPPRLPRPRPRPHEWPRP
Second: RRIRNRPPRLPRPRPRPAKFPRP
The “shrunken log2 fold change” value of the first is higher: 0.114 for the first, -0.179 for the second.

RRIRGRPPRLPRPRPRPEMEPRP and RRIRNRPPRLPRPRPRPEGKPRP are within 0.2 log units of each other in “shrunken log2 fold change” value: -0.0341 for the first, -0.0135 for the second.

RRIRPRPPRLPRPRPRPSYGPRP and RRIRDRPPRLPRPRPRPNIHPRP are within 0.2 log units of each other in “shrunken log2 fold change” value: -0.2 for the first, -0.214 for the second.

RRIRMRPPRLPRPRPRPWIEPRP and RRIRPRPPRLPRPRPRPSEPPRP are within 0.2 log units of each other in “shrunken log2 fold change” value: -0.092 for the first, -0.213 for the second.

Compared with RRIRDRPPRLPRPRPRPVYVPRP, RRIRRRPPRLPRPRPRPIDNPRP is higher in “shrunken log2 fold change” value: -0.563 for the first, -0.349 for the second.

First: RRIRSRPPRLPRPRPRPHPGPRP
Second: RRIRSRPPRLPRPRPRPMCKPRP
The “shrunken log2 fold change” value of the first is lower: 0.00228 for the first, 0.204 for the second.

RRIRARPPRLPRPRPRPQEFPRP and RRIRARPPRLPRPRPRPNDMPRP are within 0.2 log units of each other in “shrunken log2 fold change” value: -0.0568 for the first, -0.00462 for the second.

Going from RRIRIRPPRLPRPRPRPMYLPRP to RRIRWRPPRLPRPRPRPCCEPRP, the “shrunken log2 fold change” value rises from -0.249 to -0.00563.

RRIRRRPPRLPRPRPRPFVMPRP and RRIRHRPPRLPRPRPRPTSCPRP are within 0.2 log units of each other in “shrunken log2 fold change” value: -0.0623 for the first, -0.125 for the second.

Compared with RRIRERPPRLPRPRPRPRPLPRP, RRIRVRPPRLPRPRPRPKYNPRP is lower in “shrunken log2 fold change” value: 0.176 for the first, -0.658 for the second.

Compared with RRIRPRPPRLPRPRPRPRTWPRP, RRIRNRPPRLPRPRPRPGTCPRP is lower in “shrunken log2 fold change” value: 0.537 for the first, -0.0314 for the second.

Compared with RRIRKRPPRLPRPRPRPTWFPRP, RRIRNRPPRLPRPRPRPMEQPRP is lower in “shrunken log2 fold change” value: 0.203 for the first, -0.208 for the second.

First: RRIRPRPPRLPRPRPRPCFDPRP
Second: RRIRMRPPRLPRPRPRPIFNPRP
The “shrunken log2 fold change” value of the first is higher: 0.0273 for the first, -0.257 for the second.

RRIRDRPPRLPRPRPRPEWCPRP and RRIRGRPPRLPRPRPRPMVYPRP are within 0.2 log units of each other in “shrunken log2 fold change” value: 0.272 for the first, 0.438 for the second.

RRIRDRPPRLPRPRPRPDASPRP and RRIRYRPPRLPRPRPRPYQLPRP are within 0.2 log units of each other in “shrunken log2 fold change” value: -0.012 for the first, -0.00146 for the second.

First: RRIRWRPPRLPRPRPRPKNHPRP
Second: RRIRRRPPRLPRPRPRPNHWPRP
The “shrunken log2 fold change” value of the first is lower: -0.248 for the first, 0.0169 for the second.

In the case of RRIRHRPPRLPRPRPRPCMHPRP, the “shrunken log2 fold change” value is reported as -0.38.
